# Results published in PMC11257509 (bioRxiv, 2024).
# B1: 10His-pG-Tn5(E54K, L372P) (enzyme, UniProt Q46731 1-476, looked up)
# chain: MITSALHRAADWAKSVFSSAALGDPRRTARLVNVAAQLAKYSGKSITISSEGSKAMQEGAYRFIRNPNVSAEAIRKAGAMQTVKLAQEFPELLAIEDTTSLSYRHQVAEELGKLGSIQDKSRGWWVHSVLLLEATTFRTVGLLHQEWWMRPDDPADADEKESGKWLAAAATSRLRMGSMMSNVIAVCDREADIHAYLQDKLAHNERFVVRSKHPRKDVESGLYLYDHLKNQPELGGYQISIPQKGVVDKRGKRKNRPARKASLSLRSGRITLKQGNITLNAVLAEEINPPKGETPLKWLLLTSEPVESLAQALRVIDIYTHRWRIEEFHKAWKTGAGAERQRMEEPDNLERMVSILSFVAVRLLQLRESFTPPQALRAQGLLKEAEHVESQSAETVLTPDECQLLGYLDKGKRKRKEKAGSLQWAYMAIARLGGFMDSKRTGIASWGALWEGWEALQSKLDGFLAAKDLMAQGIKI
# Molecular target: the molecule itself
# Assay: SEC
protein,measurement,value
B1,binding result,binds
